B1: Azoarcus group I ribozyme (parent)
chain: GUGCCUUGCGCCGGGAAACCACGCAAGGGAUGGUGUCAAAUUCGGCGAAACCUAAGCGCCCGCCCGGGCGUAUGGCAACGCCGAGCCAAGCUUCGGCGCCUGCGCCGAUGAAGGUGUAGAGACUAGACGGCACCCACCUAAGGCAAACGCUAUGGUGAAGGCAUAGUCCAGGGAGUGGCGAAAGUCACACAAACCGG

Variants of: B1
Experiment: reverse-splicing fitness (ratio to wild type); higher = more active; in vitro selection; Mg2+ level not given
In short: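 An in vitro group I ribozyme library with randomized positions was T7-transcribed and gel-purified. In triplicate, 10 pmol RNA in EPPS pH 7.5 was reacted with 50 pmoles of a 30-nt RNA substrate for 1 h at 37 °C across several added MgCl2 levels (1–48 mM), then stopped with EDTA. Products were reverse transcribed from a substrate-complementary primer, PCR-amplified and sequenced (HiSeq 4000). Fitness is a variant's read proportion after selection over that before, normalised to wild type.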
Work on C82U A111G A145C C150G C169U U176A yielded a reverse-splicing fitness of 0.00744. With C82U A111G A145C C150G C169U U176G the reverse-splicing fitness was 0.00478. Work on C82U A111G A145C C150G C169U U176C yielded a reverse-splicing fitness of 0.00873. Variant C82U A111G A145C C150A C169U U176G has a reverse-splicing fitness of 0.00504. C82U A111G A145C C150A C169U U176A gave a reverse-splicing fitness of 0.0133. C82U A111G A145C C150A C169U U176C gave a reverse-splicing fitness of 0.00672. For C82U A111G A145G C169A, the reverse-splicing fitness was 0.00814. For C82U A111G A145G C169G, the reverse-splicing fitness was 0.00933. C82U A111G A145G C169U gave a reverse-splicing fitness of 0.0113. In the case of C82U A111G A145C C150A U176C, the reverse-splicing fitness is reported as 0.0142. For C82U A111G A145C C150A U176A, the reverse-splicing fitness was 0.0156. Work on C82U A111G A145C C150A U176G yielded a reverse-splicing fitness of 0.00788. With C82U A111G A145G C169G U176C the reverse-splicing fitness was 0.0236. C82U A111G A145G C169G U176G showed a reverse-splicing fitness of 0.00438. C82U A111G A145G C169G U176A gave a reverse-splicing fitness of 0.02. In the case of C82U A111G A145C C150U C169A U176G, the reverse-splicing fitness is reported as 0.00526. Work on C82U A111G A145C C150U C169A U176A yielded a reverse-splicing fitness of 0.00923. Work on C82U A111G A145C C150U C169A U176C yielded a reverse-splicing fitness of 0.00548. Work on C82U A111G A145G C150A U176G yielded a reverse-splicing fitness of 0.0108. C82U A111G A145G C150A U176C gave a reverse-splicing fitness of 0.0481. C82U A111G A145G C150A U176A gave a reverse-splicing fitness of 0.0328. Variant C82U A111G A120U C169G U176A has a reverse-splicing fitness of 0.0028. For C82U A111G A120U C169G U176G, the reverse-splicing fitness was 0.00183. Variant C82U A111G A120U C169G U176C has a reverse-splicing fitness of 0.00265. With C82U A111G A145G C150G C169A U176A the reverse-splicing fitness was 0.012. For C82U A111G A145G C150G C169A U176C, the reverse-splicing fitness was 0.0111. In the case of C82U A111G A145G C150G C169A U176G, the reverse-splicing fitness is reported as 0.00737. Work on C82U A111G A145G C150U C169A U176A yielded a reverse-splicing fitness of 0.0161. C82U A111G A145G C150U C169A U176G showed a reverse-splicing fitness of 0.00534. Variant C82U A111G A145G C150U C169A U176C has a reverse-splicing fitness of 0.0167. C82U A111G A145C C169U U176G gave a reverse-splicing fitness of 0.00386. C82U A111G A145C C169U U176C showed a reverse-splicing fitness of 0.00903. For C82U A111G A145C C169U U176A, the reverse-splicing fitness was 0.0108. C82U A111G A145U C150A C169A gave a reverse-splicing fitness of 0.0078. Variant C82U A111G A145G C150G C169G U176A has a reverse-splicing fitness of 0.00977. For C82U A111G A145G C150G C169G U176C, the reverse-splicing fitness was 0.00848. In the case of C82U A111G A145G C150G C169G U176G, the reverse-splicing fitness is reported as 0.00507. C82U A111G A145G C150G C169U U176C showed a reverse-splicing fitness of 0.012. C82U A111G A145G C150G C169U U176G showed a reverse-splicing fitness of 0.00654. Variant C82U A111G A145G C150G C169U U176A has a reverse-splicing fitness of 0.0101. Variant C82U A111G A145G C150G U176C has a reverse-splicing fitness of 0.0206. C82U A111G A145G C150G U176G gave a reverse-splicing fitness of 0.00618. C82U A111G A145G C150G U176A gave a reverse-splicing fitness of 0.00967. Variant C82U A111G A145G C150U U176A has a reverse-splicing fitness of 0.135. In the case of C82U A111G A145G C150U U176C, the reverse-splicing fitness is reported as 0.193. In the case of C82U A111G A145G C150U U176G, the reverse-splicing fitness is reported as 0.0312. Variant C82U A111G A145G U176G has a reverse-splicing fitness of 0.048. With C82U A111G A145G U176C the reverse-splicing fitness was 0.265. With C82U A111G A145G U176A the reverse-splicing fitness was 0.201. With C82U A111G A145C C150U C169G U176G the reverse-splicing fitness was 0.00565. Work on C82U A111G A145C C150U C169G U176A yielded a reverse-splicing fitness of 0.0186. C82U A111G A145C C150U C169G U176C gave a reverse-splicing fitness of 0.00977. For C82U A111G A145C C150A C169G U176C, the reverse-splicing fitness was 0.0112. In the case of C82U A111G A145C C150A C169G U176G, the reverse-splicing fitness is reported as 0.0054. Variant C82U A111G A145C C150A C169G U176A has a reverse-splicing fitness of 0.0215. Work on C82U A111G A145G C150A C169A yielded a reverse-splicing fitness of 0.0102. In the case of C82U A111G A145G C150A C169G, the reverse-splicing fitness is reported as 0.0093. Work on C82U A111G A145G C150A C169U yielded a reverse-splicing fitness of 0.01. In the case of C82U A111G A145G C150G C169G, the reverse-splicing fitness is reported as 0.007. Work on C82U A111G A145G C150G C169U yielded a reverse-splicing fitness of 0.00891. Work on C82U A111G A145G C150G C169A yielded a reverse-splicing fitness of 0.00883. Work on C82U A111G A145G C169U U176A yielded a reverse-splicing fitness of 0.0117. With C82U A111G A145G C169U U176C the reverse-splicing fitness was 0.0129. C82U A111G A145G C169U U176G showed a reverse-splicing fitness of 0.0046. Variant C82U A111G A145C C150A has a reverse-splicing fitness of 0.019. Variant C82U A111G A145C C150U has a reverse-splicing fitness of 0.091. C82U A111G A145C C150G gave a reverse-splicing fitness of 0.0393. With C82U A111G A120U C169U U176C the reverse-splicing fitness was 0.00442. In the case of C82U A111G A120U C169U U176G, the reverse-splicing fitness is reported as 0.0017. With C82U A111G A120U C169U U176A the reverse-splicing fitness was 0.00282. In the case of C82U A111G A145G C150U C169G, the reverse-splicing fitness is reported as 0.00979. Variant C82U A111G A145G C150U C169U has a reverse-splicing fitness of 0.0111. Variant C82U A111G A145G C150U C169A has a reverse-splicing fitness of 0.00982. In the case of C82U A111G A145U C150A, the reverse-splicing fitness is reported as 0.0335. C82U A111G A145C C150U U176C showed a reverse-splicing fitness of 0.0617. C82U A111G A145C C150U U176G showed a reverse-splicing fitness of 0.0185. With C82U A111G A145C C150U U176A the reverse-splicing fitness was 0.0454. With C82U A111G A145C the reverse-splicing fitness was 0.406. C82U A111G A145U gave a reverse-splicing fitness of 0.462. With C82U A111G A145G the reverse-splicing fitness was 0.433. C82U A111G A120U U176A showed a reverse-splicing fitness of 0.011. In the case of C82U A111G A120U U176G, the reverse-splicing fitness is reported as 0.00489. In the case of C82U A111G A120U U176C, the reverse-splicing fitness is reported as 0.0192.
